According to US12583908B2, “Albumin protein variants, production thereof and uses of same” (Yeda Research and Development Co. Ltd., priority 2022, dated 2026):
“Also recorded” adds a separate entry of the source.

Assays:
BsiEI = assay: DNA restriction of pET28b(+) with BsiEI in albumin-containing buffer; type: biochemical; settings: 0.1 mg/ml albumin, 60-80° C., 15 min
Experimental: Samples of pET28b(+) vector (1.5 μg) were restricted by BsiEI (10U, NEB) in 15 μl reaction volumes containing the Cutsmart buffer (NEB) or a reconstituted equivalent (50 mM Potassium acetate, 20 mM Tris-acetate, Mg-acetate, pH 7.9) supplemented with 0.lmg/ml of either commercial BSA (Sigma), HSA1, BSA2, or HSA3 variants (tagless, after gel filtration and ion exchange purification) at temperatures of 60-80° C. for 15 min using a gradient PCR (SensoQuest). Samples were then supplemented with 5 μl DNA sample buffer (150 mM TrisHCl pH 7.4, 5% SDS, 50% Glycerol, 0.05% Bromophenol Blue), heated (60° C., 10 min), and resolved on a 2% agarose-TAE gel containing 0.5 μg/mL Ethidium Bromide for 1.5h at 120V.

[1] = Thermal stability by nanoDSF; type: physicochemical; settings: His-tagged variants and commercial WT; 20 to 95° C. at 1° C./min
Experimental: (§1) Thermal stability measurements. Thermal stability of BSA and HSA variants (His-tagged form) and of commercial WT HSA and BSA (Sigma-Aldrich A1653 and A7638, respectively) was measured by nanoscale differential scanning fluorimetry (nanoDSF), in Prometheus NT.48 instrument (NanoTemper). The temperature was increased from 20° C. to 95° C. at 1° C./min ramp. Thermal stability of HSA variants was also measured by differential scanning calorimetry (DCS) in VP-DSC instrument (Malvern), with heating from 20° C. to 95° C. at 1° C./min and cooling at the same rate.

[2] = Thermal stability by differential scanning calorimetry (DSC); type: physicochemical
Experimental: as §1

HEK293T cells = assay: HEK293T cell culture with albumin variants; type: cell-based, human; settings: 1 mg/ml albumin, medium with 5% FBS, 5 days
Experimental: HEK293T adherent cells were grown in DMEM supplemented with GlutaMAX, NEAA and 5% FBS (all from Gibco) at 37° C., 5% CO2. To test the viability of the cultured cells in the presence of PROSS BSA2, HSA1 and HSA3 in comparison to the commercial BSA or HSA, respectively, cells (˜3×10^3) were seeded in 24-well plate and followed each day for 5 days. All the albumin variants were added to the cells at 1 mg/ml in duplicates, and their effect was analyzed. As a control, no protein was added to the growth medium. In each time point, cells were collected and the number of total cells, live cells and % of viable cells were determined automatically using Brightfield Cell Counter DeNovix.

NcoI and XhoI enzymes = assay: DNA restriction of pET29b with NcoI and XhoI in albumin-containing buffer; type: biochemical; settings: 0.1 mg/ml albumin, overnight at 37° C.
Experimental: DNA Restriction. pET29b vector with 900 bp insert was restricted with NcoI and XhoI enzymes (NEB) overnight at 37° C., using the following buffers: rCutsmart buffer (NEB, contains 0.1 mg/ml rBSA), buffer 4 (NEB, identical composition to rCutsmart buffer, but no BSA), and buffer 4 supplemented with HSA1, BSA2, and HSA3 variants (tagless, after gel filtration and ion exchange purification) at 0.1 mg/ml.

[3] = Crystal structure of HSA1 with warfarin, bound myristate; type: binding; settings: no myristate added
Experimental: Crystallization and structure determination of HSA1 and Warfarin. Tagless HSA1 protein obtained from SUMO-HSA production was concentrated to 100 mg/ml in Tris buffer pH 7.0 and supplemented with 1 mM warfarin from 100 mM stock in DMSO. Crystals of HSA1 and warfarin were obtained using the hanging-drop vapor diffusion method with a Mosquito robot (TTP LabTech). All datasets were collected under cryogenic conditions at the European Synchrotron Radiation Facility (ESRF), Grenoble, France at beamline ID30B. The crystals were grown from 0.05 M NaCl, 10% PEG 4000 and 0.05 Tris pH=8.0. The crystals formed in the space group P1, with two monomers per asymmetric unit and diffracted to 2.0 Å resolution. The integrated reflections were scaled using the AIMLESS program (20) from the CCP4i2 program suite (21). HSA1 structure determined by molecular replacement with PHASER (22) using the structure of human serum albumin in complex with aristolochic acid (PDB code 6HSC). All steps of atomic refinement were carried out with the CCP4i2/REFMAC5 program (23) and by PHENIX.refine (24). The models were built into 2 mFobs-DFcalc, and mFobs-DFcalc maps by using the COOT program (25). The model was optimized using PDB_REDO (25, 26) and was evaluated with MOLPROBITY (27). […] Details of the refinement statistics of HSA1 and Warfarin structure are described in Table 1.

[4] = Gel filtration (size exclusion) chromatography; type: physicochemical
Experimental: At the final stage, all the variants were purified by gel filtration chromatography, using HiLoad Superdex 200 column for preps coming from large scale expression (>500 ml culture) and HiLoad Superdex 75 column for preps coming from medium scale expression (50-500 ml culture).

Restriction performance, pET29b(+) digested with NcoI and XhoI (NcoI and XhoI enzymes)	Molecule	Restriction performance, pET28b(+) digested with BsiEI (BsiEI)	Melting temperature nanoDSF [1] [°C]	Thermal stability [2]	Reversibility of thermal unfolding ([2]; heating and cooling)	Melting temperature (DSC) ([2]; heating at 1° C./min) [°C]	Effect on number of HEK293T cells (HEK293T cells)	Effect on viability of HEK293T cells (HEK293T cells)	Fatty-acid (myristate) binding [3]	Oligomeric state by gel filtration [4]
performed equally well	HSA3: most highly mutated human albumin variant, 73 mutations all over the protein (Table 2) (protein, Albumin Synthetic variant) MDAHKSEVAHRFKDLGEENFKALVLIAFAQYLQKCPFEELVKMVKEVTEFAKKCVADETAENCDKSLHTLFGDKLCQVATLRETYGEMADCCAKQDPERHECFLQHKDDNPNLPRLERPEVDVMCKAFHDNEETFLNKYLYEIARRHPYFYAPELLYFAKRYKKAFTECCQAEDKAACLLPKLDALREEGKESSAKQRYKCAILQKFGERVFKAWAIARLSQRFPKAPFEEISKLVTDLTKVHKACCHGDMLECMDDRAKLAKYICENQDSISSKLKECCEKPLLERSHCIAEVENDDKPEDLPPLAADFVESKDVCKNYAEAKDVFLARFLYEYARRHPDYSVTLLLRIAKTYEDTLEKCCKAEDPHECYAKVEEEFKKLVEETQNLIKQNCELFEKLGEYYFQNALLIRYTKKMPQVPTDTLVELTRNLGKVGSKCCKLPEEKRLPCIEDYLSIVLNQLCVLHEKTPVNDRVTKCCTESLVNRRHCFSALEVDETYVPKEFNAETFTFHADLCTLSEEERQIMKQKFLVELVKHKPKATEEQLKAVMDDFTAFVEKCCKAEDPETCFAEEGSKLIAASQAALGL	performed equally well	> 95	stable beyond the boiling point	reversible temperature-dependent folding and unfolding	100.5	no adverse effect	no adverse effect		
performed equally well	HSA1: human serum albumin variant with 16 mutations, no surface and no binding site mutations (Table 2) (protein, Albumin Synthetic variant) MDAHKSEVAHRFKDLGEENFKALVLIAFAQYLQQCPFEDLVKMVNEVTEFAKTCVADESAENCDKSLHTLFGDKLCTVATLRETYGEMADCCAKQEPERNECFLQHKDDNPNLPRLVRPEPDVMCTAFHDNEETFLKKYLYEIARRHPYFYAPELLYFAKRYKAAFTECCQAADKAACLLPKLDELREEGKASSAKQRHKCAILQKFGERAFKAWAVARLSQRFPKAEFAEVSKLVTDLTKVHTECCHGDLLECADDRADLAKYICENQDSISSKLKECCEKPLLEKSHCIAEVENDEMPADLPSLAADFIESKDVCKNYAEAKDVFLGMFLYEYARRHPDYSVVLLLRLAKTYETTLEKCCAAADPHECYSKVFDEFKPLIEEPQNLIKQNCELFEQLGEYKFQNALLIRYTKKVPQVSTPTLVEVARNLGKVGSKCCKHPEAKRMPCAEDYLSIVLNQLCVLHEKTPVSDRVTKCCTESLVNRRPCFSALEVDETYVPKEFNAETFTFHADICTLSEEERQIKKQTALVELVKHKPKATKEQLKAVMDDFSAFVEKCCKADDKETCFAEEGKKLIAASQAALGL	performed equally well	86				no adverse effect	no adverse effect	indistinguishable from the wild type; also recorded: four molecules of myristate fatty acid are present in the structure	completely monomeric
